One assay deals with T1, anti-FX-arm of ACE910.
T1 construct: also called anti-FX side Fab of ACE910; anti-FX-F(ab')2
In words: ELISA, hybridoma culture supernatant. How it is done:
(§1) Mice and rats were immunized with anti-FIXa-F(ab′)2 or anti-FX-F(ab′)2. Cells obtained from the spleen removed from the mice or rats or from rat lymph nodes were subjected to cell fusion with mouse myeloma cells by following general methods to produce the hybridomas. The culture supernatants of the hybridomas were evaluated by ELISA which detects the binding of ACE910 to the anti-FIXa-arm or the anti-FX-arm, and ultimately, mouse antibodies, AQ8 and AQ1, and rat antibody, AQ512, which bind only to the anti-FIXa-arm but not to the anti-FX-arm of ACE910, and rat antibodies, AJ540, AJ114, AJ521, AJ522, and AJ541, which bind only to the anti-FX-arm but not to the anti-FIXa-arm of ACE910 were selected. In addition, the nucleotide sequences of the variable regions of the AQ8 antibody or the AJ540 antibody were analyzed. The nucleotide sequences of the variable regions of AQ8 and AJ540, and amino acid sequences predicted therefrom were analyzed using GENETYX Ver.9 (GENETYX CORPORATION).
(In an ELISA, binding on a coated surface is turned into a signal by an enzyme label.)

A further assay has as its target T2, anti-FIXa-arm of ACE910.
T2 construct: Q499/J327; also called anti-FIXa side Fab of ACE910; anti-FIXa-F(ab')2
Nature of the assay: ELISA, hybridoma culture supernatant. Here is the method:
as §1

Results on two molecules are retold here after patent publication US20180011114A1 (PUBLIC UNIVERSITY CORPORATION NARA MEDICAL UNIVERSITY, published 2018).

T1 sequence (VH, as listed by the source, chain 1 of 2): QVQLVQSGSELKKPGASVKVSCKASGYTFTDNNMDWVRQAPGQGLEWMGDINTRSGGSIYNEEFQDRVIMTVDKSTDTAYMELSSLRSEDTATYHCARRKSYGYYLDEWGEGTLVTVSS
T1 sequence (VL, as listed by the source, chain 2 of 2): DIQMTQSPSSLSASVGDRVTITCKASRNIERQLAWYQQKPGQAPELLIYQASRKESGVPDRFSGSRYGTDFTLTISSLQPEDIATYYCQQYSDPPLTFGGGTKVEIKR
T2 sequence (VH, as listed by the source, chain 1 of 2): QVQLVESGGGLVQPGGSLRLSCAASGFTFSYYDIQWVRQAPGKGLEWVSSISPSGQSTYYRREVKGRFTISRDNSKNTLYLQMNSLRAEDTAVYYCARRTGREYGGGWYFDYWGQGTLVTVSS
T2 sequence (VL, as listed by the source, chain 2 of 2): as the sequence (VL, as listed by the source, chain 2 of 2) above

B1: AQ8 (antibody, V domains shown)
VH: EVNLVESGGGLVQPGGSMSLSCAASGFTFTDYYMSWVRQPPGKALEWLALIRNKANGYTTEYSASVKGRFTISRDNSQSILYLQMNALRAEDSATYYCARDSYYSYDGYAMDYWGQGTSVTVSS
VL: DIQMTQSPASLAASVGETITITCQASENIYFSLAWYQQKQGKSPQLLIYNTDSLKDGVPSRFSGSGSGTQYSMKINSMQPEDTATYFCRQSYDFPWTFGGGTKLEIK
notes: Mouse antibody from a hybridoma (culture supernatant in the ELISA); also called AQ8 antibody
Take B1: the binding result in the assay with anti-FX-arm of ACE910 is “no binding”.

B2: AJ540 (antibody, V domains shown)
VH: QIQLVQSGPELKKPGESVKISCKASGYTFTDYAMHWVKQVPGKGLKWMGWINTYTGKPTYADDFKGRFVFSLEASASTANLQISNLKNEDTANVFCAREGGGYYWYFDFWGPGTMVTVSS
VL: DIVMTQSPTSMSISVGDRVTMNCKANQNVDFNVDWYQQKTGQSPKLLIYKASNRYTGVPDRFTGSGSGTDFTFTISNMQAEDLAVYYCMQSNSFPLTFGSGTNLEIK
notes: Rat antibody from a hybridoma (culture supernatant in the ELISA); also called AJ540 antibody
In the case of B2, the binding result with anti-FIXa-arm of ACE910 was “no binding”.
